According to US20170067044A1:

Molecular target: streptavidin (recombinant, with Ni-affinity tag) (UniProt P22629)
Experiment: PLISA on immobilized streptavidin, binding through biotin

Sequence of streptavidin (recombinant, with Ni-affinity tag) (P22629 37-163 limits assumed): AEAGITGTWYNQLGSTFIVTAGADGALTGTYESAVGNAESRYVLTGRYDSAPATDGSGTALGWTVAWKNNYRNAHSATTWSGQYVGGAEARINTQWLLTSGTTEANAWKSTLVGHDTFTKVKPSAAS

biotinylated form of M13LuxABElink-SompbioVII3 (luciferase-encoding M13 phage exposing a biotinylated BirA-substrate polypeptide as part of capsid protein VII) (from UniProt P69533 1-33)
smallest amount of streptavidin detected (pg loaded in the well): 1
